Source: the DeepSol protein solubility set

Experiment: soluble on expression in E. coli; label from the status in PepcDB or PDB records

Sequence	soluble on expression in E. coli
MAHHHHHHMVTLNSTKPQVVIEASGVPTIQTSSITSPVVLTTPLGKSMYSSYSYSNPVSSSYSSSHHNECEYNWERVSTKPSQSTQHGEYMKTFEVPTGLYYETLPLKRNTNNIFEVTPSKEELEKINYNPRIEVYSTCNFVIIMMDLPGVSKENLKVELENGVLKIFGHKYKVPLEELQTEHEYHTKIIERVGEYYFCKMFQMPPVFSDGQSISCTLRDGELTFKMLASDLRAQKRVVEVQS	not soluble
MAHHHHHHMYSTTNDKSENEDLNDVIEININNIANKLANILYITNVGMKENCELKNNLHFSKFLNDMRSYCVNLIQSINNLNSNFYNLTCLPVHSIPRNPYTNILDINVITNNISVDDNADKIKEKQTLLQSFHNKYDKNKTTFHQSIKHIETFNDQLFSALNNLDHIKMSIKYQDQESSTYGNVVSERLKNKQKDHEHLELYIARVHYGLF	not soluble
MAHPQEIREKLRRLYVSGEQTLETAALMCEIPQTTARAWKRADKEKGDDWDKMRAAYTLAGGGIEDLSRAMLAGFMVQYNSTMTMLQDSSTEDLPPSDRAKLLASLADAFTKTVSANARVMPETSKLATALELIEFLMAFVQEKHPKHLPAFVEVLEPFGVEVEKKFG	not soluble
MAHSQVGIQLISESTEKTLAELIALCAEHNIIHNEKSPLALVQTDDRLELRKLDEPKLGAVYVDFVGGTMAHRRKFGGGRGEAVAKAVGIKGSALPTVIDATAGLGRDAFVLAAIGCQVRLVERHPVVFLLLQDGLNRAYQDEEIGEMLQQNLHLLNVQHINELDPNSDYADVVYLDPMYPHKQKSALVKKEMRVFQHLVGADLDADELLLPALQLAKKRVVVKRPDYAEFLCGKQPHFSHETKNHRFDIYMGASQC	soluble
MAHTSRHNEFSIGASASLWECMLNQWLGRLYQNQDAHTGLQFEARIAQRQSLVKQLHERQLDLLITTEAPKMDEFSSQLLGYFTLALYTSAPSKLKGDLNYLRLEWGPDFQQHEAGLIGADEVPILTTSSAELAQQQIAMLNGCTWLPVSWARKKGGLHTVVDSTTLSRPLYAIWLQNSDKNALIRDLLKINVLDEVY	not soluble
MAIEIKLETPRQEAVLRLIDLSNAYMASLYPAESNHLVDIGALEKDNVSFFVARHDGRVVGCGALVEAGDGTAEVKRMFVDPEARGLRIGKLIMDTLVARGTELGLSAIRLETGISQPEAIGLYRKEGFVEIEAFAPYKPDPLSLFMERAL	not soluble
MAIGSKIIKPGGSDPDDFEKSIAQALVELEANSDLKPYLRDLHITRAREIEFGSKKAVIIYVPIPQQKVFQKIQIILVRELEKKFSGKHVVVIAERKILPKPTRKARNPLKQKRPRSRTLTAVYDAILEDLVFPAEIVGKRIRVKLDGSQLVKVHLDKNQQTTIEHKVDTFTSVYKKLTGRDVTFEFPDNYLNV	not soluble
MAIIEEIFEDEEDQITKVDSLKKEGNNFFANGEFEKANEKYQEAIASCPPTSTEVQSILLSNSAAALIKLRKWESAVEAASKSIEIGATNEKALERRAFAYSNMSEKYENSIEDYKQLQESLPKRRVELDRKIAEINEKINNRNEAMKADVMEKLKGFGNFCLSPFGLSTDSFEMVPNGNGGFSVQMKGATNKQEGASQEKKEEENA	soluble
MAIIKSPVFKDISEAEISEMTSAGFLRARKFRKKAIIYHVTDIVHEIGIVASGQVTIEYIDMWGNKAIMSNIAPGQVFAETYALSGEPLMVDAVASETSVVLFLNIRKLMDSQPENVHYKDTILNNLLHISIQKNLTLSNRIFCTSPKTIRDRLLIYLSNESRKAGCEEFSIPFDRQQLADYLNVDRTALSKELGKMRDDGLIEFRKNVFHLLSIC	not soluble
MAIKNAFYAQSGGVTAVINASACGVIQTARKHPDQIGKVYAGRNGIIGALKEELIDTSLESDDAIQALIHTPGGAFGSCRYKLKNISENQREYERLIEVFRAHDIGYFFYNGGGDSQDTAYKVSQLADRMGYPITCIGVPKTVDNDLPFTDCCPGFGSVAKYIATSTLEASLDIKSMCETSTKVFILEVMGRHAGWIAAAGGLAGQSEGEPPHVILFPEIPFNREKFLERVDQCVRDYGYCVVVASEGAQYEDGRFVADAGAKDAFGHTQLGGVAPALANMVKQALGHKYHWAVADYLQRAARHIASATDVEQAYAVGKAAVEMALAGKQALMPTIVRDQAKPYRWSIGEANLSEVANQEKKMPIHYITDNGFGITQDCRDYLQPLIAGESFPPFDDGLPRVAKLKNQLVEKKLRTEFELLEHHHHHH	not soluble
MAILIELQDICVDFEQRRVLDNIRLTLTKGNITTLIGPNGAGKSTLVKVILGLQSLSSGKIIRQSGIRIGYVPQKLKLNDTLPLTVNRFLKLAGRFSTQELSEALRLVGGEHLQSSDMHKLSGGETQRVLLARALLQRPDLLVLDEPAQGVDVQGQIDLYDLIHTLRNRFGCAVLMVSHDLHLVMAKTDEVICLQHHVCCSGSPESIAKHPSYLAMFGHRSRDTLAFYQHHHEHHHHDLSGLPVKGKASVCSHHSHGHHKHD	not soluble
MAIPDYQAVMLPLLKYAGDGKEHHIRDAIEKLAEEFELSEEERKELLPSGQQAIFKNRIGWANTYLKKAGLLGSRKKGYFSITRRGLDVLREKPPSIDVSFLKRYKEFNEFYNKDKQVLIDKPDVPEAEGKRALDPEESLEIAYQKLHNELVSEIISTTKKCSPAFFESLVVDVLTKMGYGGSRVDAGKAIGKSHDGGIDGIIKEDRLGLDVIYIQAKRWEGTVSKPEIQKFAGALIGKKAKKGVFITTSSFSKEAIEYADFTGNIVLVDGEMLARLMIEYNVGVSRVKSYEVKKMDTDYFEDGVI	not soluble
MAIVDPIVTGLNAGWLHTDASQLQANQQFEADVVIVGTGAGGGVAAEILTQAGLSVIMIEAGPLKSSSDFNMEERVAYPNLYQQAAAMKTADKAIGIFQGRAVGGSTTINWTTSIRTPKEALAFWAQHKSVAGLDPEALAPWFDQMEQRLNIHEWNYEPNRNNGALKQGCINLGWDYTVIKRNVAGCWNTGYCGMGCPVNAKQSMLVTTIPSALEKGAQLISRAKVVKIEHHNGQVFALKAQALDVNLRPTAVELLFKAKHYILSAGAIHTPTLMMRSEVPDPHQLLGKRTFLHPTVLSGGVFADTINAHSGAPQSIYSDEFVWKNGADGELGYKLEVPPVHPILIASKTIGYGVSHAELMAQFNQLQVTIALIRDGYHPDSQGGQVHLTPTGFSLDYPLTDAFWRAVRRAYASMAELQFSAGALKVLPISDGMPYLSSWKEAKESIAQMDLAPLKTVVASAHVMGGCPLGEDEKLSMVNSYGQSHYLNNLSVMDGSIFPTSLGANPQLSIYGITARNATALAQKLKDGREPQLEHHHHHH	not soluble
MAKARRRRVRDTWKEKKWYVIKSPKLFGENEIGTTPSRDPDFLLKRRVEATMRELTGDFSKQYVKLKFQIDSVAGSEATTRFIGHQVTTDYVRSMIRRGTSRVDAPVIVETKDGYKLKVHPLAITIRRAKSSQQKYMRQSIEEHLREIASEKTFEELVEGIVTGKIASEIYHQAKKIYPLKRVEIIKSRVLEEPALEHHHHHH	soluble
MAKEFLIELGTEELPPKQLRTLAEAFAANFAAELATADIAHEGVTWFATPRRLALKVANLAESQPDRVVEKRGPAVNVAFDADGKPTKAAEGWARGNGITVEQAERLVTDKGEWLLFKEQVQGQQTASVVVEMAAKALANLPIAKPMRWGDKETQFIRPVKTLTILFGSELIQGEILGVASARTLRGHRFMGEAEFTIESAEQYPAILEERGKVIADYATRKAMIIEGSQQAAQQLGGIADLEDALVEEVTSLVEWPVVMTAKFEEKFLKVPAEALVYTMKGDQKYFPVYDASKKLLPNFIFVSNIESKEPRHIVEGNEKVVRPRLADAEFFFNTDRKRPLVDRLPLLENAIFQQQLGTIKDKTDRITELAGYIAEQIGADVEKSKRAGLLAKCDLMTSMVFEFTDTQGVMGMHYARHDGEAEEVAVALNEQYMPRFAGDELPSRGVSAAVAMADKLDTIVGIFGIGQAPKGSDPFALRRASLGVLRILVEYGYQLDLVDLIAKAKSLFGDRLTNANVEQEVIEFMLGRFPTWYQDAGFSIDIIQAVLARNPTKPADFDQRVKAVSHFRALEEAEALAAANKRVGNILAKYDGELGEEIDLALLQEDAEKALAEAVEIMAEALEPAFATGNYQEALSKLAGLRAPVDAFFDNVMVMADDEALKKNRLTLLNKLRNLFLQIADISLLQK	not soluble
